Experiments:
[1] = biological target: N36^Mut(e,g); assay: cell-based or functional assay
[2] = biological target: pre-hairpin intermediate of gp41 (HIV-1 Env on effector cells) (HIV-1), P03377; assay: cell-based or functional assay

| Binder | α: factor relating the homotrimerization association constant of L to Kref^trimer, fitted to the fusion inhibition data at λMT=1.5×10^-4 M [1] | α: factor relating the homotrimerization association constant of L to Kref^trimer, fitted to the fusion inhibition data at λMT=1.5×10^-5 M [1] | IC50, inhibition of HIV Env-mediated cell fusion (vaccinia virus-based reporter gene assay) [2] [nM] | fold activity in inhibiting fusion relative to N36 [2] [fold] | β: factor relating the heterotrimerization association constant of M and L to Kref^trimer, fitted to the fusion inhibition data at λMT=1.5×10^-4 M [2] | β: factor relating the heterotrimerization association constant of M and L to Kref^trimer, fitted to the fusion inhibition data at λMT=1.5×10^-5 M [2] | inhibition of HIV Env-mediated cell fusion (vaccinia virus-based reporter gene assay) [2] [mM] |
| --- | --- | --- | --- | --- | --- | --- | --- |
| SGIDQEQNNLTRLIEAQIHELQLTQWKIKQLLARIL (modifications not checked) [N36^Mut(e,g)] | 0.34 | 1.07 | 308 | 50 | 5.76 | 2.97 | – |
| SGIVQQLNNQLRAEEANQHLEQLSVWGSKQNQARRL (modifications not checked) [N36^Mut(a,d)] | – | – | – | – | – | – | > 0.1 |

— patent US20060281673A1, “Novel peptide inhibitor of hiv fusion that disrupts the internal trimeric coiled-coil of gp41” (priority 2003, published 2006)
